In article PMC5095703 (Biochemistry, 2016):

Key:
FdhC-C-term tag = FdhC-C-term tag (Acinetobacter nosocomialis, UniProt V5RDR9); assay: X-ray crystal structure, […] Å; type: binding; details: ternary complex with dTDP-Fuc3N(R3Hb) (also with dTDP-Qui3N(R3Hb)), pH 5.0
[1] = tested on: Cc1cn([C@H]2C[C@H](O)[C@@H](COP(=O)(O)OP(=O)(O)O[C@H]3O[C@H](C)[C@H](O)[C@H](N)[C@H]3O)O2)c(=O)[nH]c1=O; assay: purified protein; details: 1 mM 3-hydroxybutanoyl-CoA, 50 mM HEPES pH 7.5, 5 mM DTNB
[2] = tested on: Cc1cn([C@H]2C[C@H](O)[C@@H](COP(=O)(O)OP(=O)(O)O[C@H]3O[C@H](C)[C@@H](O)[C@H](N)[C@H]3O)O2)c(=O)[nH]c1=O; assay: purified protein; details: 1 mM 3-hydroxybutanoyl-CoA, 50 mM HEPES pH 7.5, 5 mM DTNB
[3] = tested on: CC(=O)SCCNC(=O)CCNC(=O)[C@H](O)C(C)(C)COP(=O)(O)OP(=O)(O)OC[C@H]1O[C@@H](n2cnc3c(N)ncnc32)[C@H](O)[C@@H]1OP(=O)(O)O; assay: purified protein; details: 5 mM dTDP-Fuc3N, 50 mM HEPES pH 7.5, 5 mM DTNB

Compound | X-ray crystal structure, 1.8 Å (FdhC-C-term tag) | Km [1] [µM] | kcat [1] [s⁻¹] | kcat/Km [1] [M⁻¹ s⁻¹] | Km [2] [µM] | kcat [2] [s⁻¹] | kcat/Km [2] [M⁻¹ s⁻¹] | Km [3] [µM] | kcat [3] [s⁻¹] | kcat/Km [3] [M⁻¹ s⁻¹]
CC(C)(COP(=O)(O)OP(=O)(O)OC[C@H]1O[C@@H](n2cnc3c(N)ncnc32)[C@H](O)[C@@H]1OP(=O)(O)O)[C@@H](O)C(=O)NCCC(=O)NCCS [CoA] | the observed electron density for the CoA and the dTDP-Fuc3N(R3Hb) ligands | – | – | – | – | – | – | – | – | –
FdhC (Acinetobacter nosocomialis) | – | 650 ± 70 | 52.7 ± 2.1 | 81000 | 5300 ± 800 | 24.7 ± 1.7 | 4700 | 40 ± 10 | 0.0034 ± 0.0002 | 85
FdhC-C-term tag (Acinetobacter nosocomialis) | – | 1500 ± 200 | 38.3 ± 1.9 | 26000 | – | – | – | – | – | –
